Experimental data as given in the Immune Epitope Database (IEDB).
Values belong to the sequence of their own block, whether it stands above or below them.

Legend:
HLA-A*02:10 = assay: IEDB peptide-MHC binding, purified MHC/direct/fluorescence; filed as Kd, often an IC50 or EC50 that approximates it; ≥ and ≤ were set here for values at or beyond the usual limits of such assays; conditions: source organism: Escherichia coli O157:H7 str. EC869
HLA-A*02:11 = assay: as above; conditions: source organism: Escherichia coli O157:H7 str. EC869
HLA-A*02:50 = assay: as above; conditions: source organism: Escherichia coli O157:H7 str. EC869
HLA-A*23:01 [1] = assay: as above; conditions: source organism: Escherichia coli O157:H7 str. EC869
HLA-A*24:03 [2] = assay: as above; conditions: source organism: Escherichia coli O157:H7 str. EC869
HLA-A*29:02 [3] = assay: as above; conditions: source organism: Escherichia coli O157:H7 str. EC869
HLA-A*30:01 = assay: as above; conditions: source organism: Escherichia coli O157:H7 str. EC869
HLA-B*07:02 [4] = assay: as above; conditions: source organism: Escherichia coli O157:H7
HLA-B*15:01 = assay: as above; conditions: source organism: Escherichia coli O157:H7 str. EC869
HLA-B*18:01 [5] = assay: as above; conditions: source organism: Escherichia coli O157:H7 str. EC869
HLA-B*40:01 = assay: as above; conditions: source organism: Escherichia coli O157:H7 str. EC869
HLA-B*44:02 = assay: as above; conditions: source organism: Escherichia coli O157:H7 str. EC869
HLA-B*51:01 [6] = assay: as above; conditions: source organism: Escherichia coli O157:H7
HLA-B*57:01 [7] = assay: as above; conditions: source organism: Escherichia coli O157:H7 str. EC869
HLA-B*58:01 [8] = assay: as above; conditions: source organism: Escherichia coli O157:H7 str. EC869
HLA-B*46:01 = assay: IEDB peptide-MHC binding, purified MHC/competitive/fluorescence; filed as Kd, often an IC50 or EC50 that approximates it; ≥ and ≤ were set here for values at or beyond the usual limits of such assays
HLA-A*02:01 [9] = assay: as above; conditions: source organism: Plesiomonas shigelloides
HLA-A*02:03 = assay: as above; conditions: source organism: Plesiomonas shigelloides
HLA-A*02:12 = assay: as above; conditions: source organism: Plesiomonas shigelloides
HLA-A*02:16 = assay: as above; conditions: source organism: Plesiomonas shigelloides
HLA-A*02:19 = assay: as above; conditions: source organism: Plesiomonas shigelloides
HLA-A*23:01 [10] = assay: as above; conditions: source organism: Plesiomonas shigelloides
HLA-A*24:03 [11] = assay: as above; conditions: source organism: Plesiomonas shigelloides
HLA-A*26:01 = assay: as above; conditions: source organism: Plesiomonas shigelloides
HLA-A*29:02 [12] = assay: as above; conditions: source organism: Plesiomonas shigelloides
HLA-A*68:02 [13] = assay: as above; conditions: source organism: Plesiomonas shigelloides
HLA-A*69:01 = assay: as above; conditions: source organism: Plesiomonas shigelloides
HLA-A*80:01 = assay: as above; conditions: source organism: Plesiomonas shigelloides
HLA-B*27:03 = assay: as above; conditions: source organism: Plesiomonas shigelloides
HLA-B*39:01 = assay: as above; conditions: source organism: Plesiomonas shigelloides
HLA-B*51:01 [14] = assay: as above; conditions: source organism: Plesiomonas shigelloides
HLA-B*57:01 [15] = assay: as above; conditions: source organism: Plesiomonas shigelloides
HLA-A*01:01 = assay: IEDB peptide-MHC binding, purified MHC/competitive/fluorescence; ≥ and ≤ were set here for values at or beyond the usual limits of such assays; conditions: source organism: Homo sapiens
HLA-A*02:01 [16] = assay: as above; conditions: source organism: Homo sapiens
HLA-A*03:01 = assay: as above; conditions: source organism: Homo sapiens
HLA-A*11:01 = assay: as above; conditions: source organism: Homo sapiens
HLA-A*24:02 = assay: as above; conditions: source organism: Homo sapiens
HLA-A*25:01 = assay: as above; conditions: source organism: Homo sapiens
HLA-A*29:02 [17] = assay: as above; conditions: source organism: Homo sapiens
HLA-A*31:01 = assay: as above; conditions: source organism: Homo sapiens
HLA-A*68:02 [18] = assay: as above; conditions: source organism: Homo sapiens
HLA-B*07:02 [19] = assay: as above; conditions: source organism: Homo sapiens
HLA-B*08:01 = assay: as above; conditions: source organism: Homo sapiens
HLA-B*14:02 = assay: as above; conditions: source organism: Homo sapiens
HLA-B*18:01 [20] = assay: as above; conditions: source organism: Homo sapiens
HLA-B*35:01 = assay: as above; conditions: source organism: Homo sapiens
HLA-B*37:01 = assay: as above; conditions: source organism: Homo sapiens
HLA-B*40:02 = assay: as above; conditions: source organism: Homo sapiens
HLA-B*44:03 = assay: as above; conditions: source organism: Homo sapiens
HLA-B*51:01 [21] = assay: as above; conditions: source organism: Homo sapiens
HLA-B*53:01 = assay: as above; conditions: source organism: Homo sapiens
HLA-B*58:01 [22] = assay: as above; conditions: source organism: Homo sapiens

- Kd (HLA-A*02:10): ≥ 20 µM
- Kd (HLA-A*02:11): ≥ 20 µM
- Kd (HLA-A*02:50): ≥ 20 µM
- Kd (HLA-A*23:01 [1]): ≥ 20 µM
- Kd (HLA-A*24:03 [2]): ≥ 20 µM
- Kd (HLA-A*29:02 [3]): ≥ 20 µM
- Kd (HLA-A*30:01): ≥ 20 µM
- Kd (HLA-B*07:02 [4]): 0.316 µM
- Kd (HLA-B*15:01): 0.031 µM
- Kd (HLA-B*18:01 [5]): ≥ 20 µM
- Kd (HLA-B*40:01): ≥ 20 µM
- Kd (HLA-B*44:02): ≥ 20 µM
- Kd (HLA-B*51:01 [6]): ≥ 20 µM
- Kd (HLA-B*57:01 [7]): ≥ 20 µM
- Kd (HLA-B*58:01 [8]): ≥ 20 µM
- Kd (HLA-B*46:01; source organism: Escherichia coli str. K-12 substr. MG1655): 3 µM
Sequence: ESMMGSTAM

Sequence: LLFRMILNY
- Kd (HLA-A*02:01 [9]): ≥ 20 µM
- Kd (HLA-A*02:03): ≥ 20 µM
- Kd (HLA-A*02:12): ≥ 20 µM
- Kd (HLA-A*02:16): ≥ 20 µM
- Kd (HLA-A*02:19): ≥ 20 µM
- Kd (HLA-A*23:01 [10]): ≥ 20 µM
- Kd (HLA-A*24:03 [11]): ≥ 20 µM
- Kd (HLA-A*26:01): ≥ 20 µM
- Kd (HLA-A*29:02 [12]): 0.005 µM
- Kd (HLA-A*68:02 [13]): ≥ 20 µM
- Kd (HLA-A*69:01): ≥ 20 µM
- Kd (HLA-A*80:01): 0.0259 µM
- Kd (HLA-B*27:03): ≥ 20 µM
- Kd (HLA-B*39:01): ≥ 20 µM
- Kd (HLA-B*46:01; source organism: Plesiomonas shigelloides): ≥ 20 µM
- Kd (HLA-B*51:01 [14]): ≥ 20 µM
- Kd (HLA-B*57:01 [15]): ≥ 20 µM

- IC50 (HLA-A*01:01): ≥ 20 µM
- IC50 (HLA-A*02:01 [16]): 2.91 µM
- IC50 (HLA-A*03:01): ≥ 20 µM
- IC50 (HLA-A*11:01): ≥ 20 µM
- IC50 (HLA-A*24:02): 1.13 µM
- IC50 (HLA-A*25:01): ≥ 20 µM
- IC50 (HLA-A*29:02 [17]): 0.661 µM
- IC50 (HLA-A*31:01): ≥ 20 µM
- IC50 (HLA-A*68:02 [18]): 3.62 µM
- IC50 (HLA-B*07:02 [19]): ≥ 20 µM
- IC50 (HLA-B*08:01): ≥ 20 µM
- IC50 (HLA-B*14:02): 15.1 µM
- IC50 (HLA-B*18:01 [20]): ≥ 20 µM
- IC50 (HLA-B*35:01): ≥ 20 µM
- IC50 (HLA-B*37:01): ≥ 20 µM
- IC50 (HLA-B*40:02): ≥ 20 µM
- IC50 (HLA-B*44:03): ≥ 20 µM
- IC50 (HLA-B*51:01 [21]): ≥ 20 µM
- IC50 (HLA-B*53:01): ≥ 20 µM
- IC50 (HLA-B*58:01 [22]): ≥ 20 µM
Sequence: YFYYNAFHWAI
